Laboratory results reported in PMC10377887, “Individual Contributions of Amido Acid Residues Tyr122, Ile168, and Asp173 to the Activity and Substrate Specificity of Human DNA Dioxygenase ABH2”.

T1: ABH2 WT (human, UniProt Q6NS38 1-261)
T1 sequence: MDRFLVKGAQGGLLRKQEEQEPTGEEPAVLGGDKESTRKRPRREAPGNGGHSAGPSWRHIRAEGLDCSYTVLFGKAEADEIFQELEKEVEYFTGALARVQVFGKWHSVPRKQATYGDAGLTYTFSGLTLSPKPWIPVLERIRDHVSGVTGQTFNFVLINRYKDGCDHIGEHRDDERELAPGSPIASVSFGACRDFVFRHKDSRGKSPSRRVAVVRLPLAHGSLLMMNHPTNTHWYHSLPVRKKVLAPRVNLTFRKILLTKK

B1: m1A (dsDNA)
DNA 1: AGTTCAATGATCTTCAT
DNA 2: ATGAAGATCATTGAACT
modifications: N1-methyladenine at position 10 of strand 1
B2: m3C (dsDNA)
DNA 1: AGTTCAATGATCTTCAT
DNA 2: ATGAAGATCATTGAACT
modifications: N3-methylcytosine at position 12 of strand 1

Biological target: T1, ABH2 WT
Assay: EMSA; 0.5 mM αKG, 10 mM Mg2+, 2 mM ascorbate; EMSA: 50 mM Tris-HCl pH 8.0, 50 mM KCl, 10 mM MgCl2, 0.5 mM αKG, 2 mM Na ascorbate; 1.2 µM DNA, 0.4-12.8 µM protein; 10 min 37 °C then 5 min on ice; 10% native
Settings: protein: recombinant; tags: N-terminal His6; label: 5'-FAM on strand 1; blunt

| Binder | Kd [µM] |
| --- | --- |
| B1 | 2.45 ± 0.07 |
| B2 | 3.5 ± 0.1 |
